Paper PMC12102759 (2025)

B1: PIP5K1C peptide 642-657 (Phosphatidylinositol 4-phosphate 5-kinase type-1 gamma), 16-mer library wild type / TLN1 PTB (TLN1 Phosphotyrosine-binding (PTB) domain, residues 309-401) (parent complex)
chain 1: TDERSWVYSPLHYSAQ
chain 2: GVSFFLVKEKMKGKNKLVPRLLGITKECVMRVDEKTKEVIQEWNLTNIKRWAASPKSFTLDFGDYQDGYYSVQTTEGEQIAQLIAGYIDIILK

Variants of: B1
Test: proteomic peptide phage display deep mutational scan (ProP-PD DMS): M13 P8 16-mer library selected against immobilised GST-tagged bait for four days (rounds), NGS of the eluted pools per day and pseudo-replica; bait immobilised on MaxiSorp plates (10 µg), library pre-cleared on GST, 2 h binding at 4 °C, five washes; one round per day, days 1-4; value from days 2 and 3

chain 1 T1W was tested. Which screen value did it give?
Its screen value is 0.00109 average fractional NGS count over selection days 2 and 3 (reads of this peptide / all reads for the bait, averaged over ….

How did the screen value turn out when chain 1 T1E was run?
The screen value was 0.00477 average fractional NGS count over selection days 2 and 3 (reads of this peptide / all reads for the bait, averaged over ….

With chain 1 T1F as the variant, how does the screen value read?
The screen value was 0.0018 average fractional NGS count over selection days 2 and 3 (reads of this peptide / all reads for the bait, averaged over ….

Which screen value does the source give for chain 1 T1I here?
Its screen value is 0.000851 average fractional NGS count over selection days 2 and 3 (reads of this peptide / all reads for the bait, averaged over ….

With chain 1 T1D as the variant, how does the screen value read?
Its screen value is 0.00201 average fractional NGS count over selection days 2 and 3 (reads of this peptide / all reads for the bait, averaged over ….

For chain 1 T1L, which screen value is on record?
The screen value was 0.000574 average fractional NGS count over selection days 2 and 3 (reads of this peptide / all reads for the bait, averaged over ….

Which screen value does the source give for chain 1 T1K here?
The screen value was 0.001 average fractional NGS count over selection days 2 and 3 (reads of this peptide / all reads for the bait, averaged over ….

With chain 1 T1G as the variant, how does the screen value read?
Its screen value is 0.00259 average fractional NGS count over selection days 2 and 3 (reads of this peptide / all reads for the bait, averaged over ….

How did the screen value turn out when chain 1 Y13A was run?
The screen value was 0.000758 average fractional NGS count over selection days 2 and 3 (reads of this peptide / all reads for the bait, averaged over ….

How did the screen value turn out when chain 1 Y13M was run?
Its screen value is 0.00125 average fractional NGS count over selection days 2 and 3 (reads of this peptide / all reads for the bait, averaged over ….

How did the screen value turn out when chain 1 Y13E was run?
The screen value was 0.000568 average fractional NGS count over selection days 2 and 3 (reads of this peptide / all reads for the bait, averaged over ….

chain 1 Y13F was tested. Which screen value did it give?
The screen value was 0.0029 average fractional NGS count over selection days 2 and 3 (reads of this peptide / all reads for the bait, averaged over ….

chain 1 Y13G was tested. Which screen value did it give?
Its screen value is 0.000568 average fractional NGS count over selection days 2 and 3 (reads of this peptide / all reads for the bait, averaged over ….

Which screen value does the source give for chain 1 Y13R here?
Its screen value is 0.00043 average fractional NGS count over selection days 2 and 3 (reads of this peptide / all reads for the bait, averaged over ….

chain 1 Y13D was tested. Which screen value did it give?
Its screen value is 0.0137 average fractional NGS count over selection days 2 and 3 (reads of this peptide / all reads for the bait, averaged over ….

How did the screen value turn out when chain 1 L11Y was run?
The screen value was 0.000186 average fractional NGS count over selection days 2 and 3 (reads of this peptide / all reads for the bait, averaged over ….

Which screen value does the source give for chain 1 L11R here?
The screen value was 0.00065 average fractional NGS count over selection days 2 and 3 (reads of this peptide / all reads for the bait, averaged over ….

For chain 1 L11T, which screen value is on record?
The screen value was 0.00178 average fractional NGS count over selection days 2 and 3 (reads of this peptide / all reads for the bait, averaged over ….

How did the screen value turn out when chain 1 L11I was run?
The screen value was 0.00188 average fractional NGS count over selection days 2 and 3 (reads of this peptide / all reads for the bait, averaged over ….

With chain 1 L11E as the variant, how does the screen value read?
Its screen value is 0.000382 average fractional NGS count over selection days 2 and 3 (reads of this peptide / all reads for the bait, averaged over ….

How did the screen value turn out when chain 1 L11A was run?
The screen value was 0.000511 average fractional NGS count over selection days 2 and 3 (reads of this peptide / all reads for the bait, averaged over ….

For chain 1 L11F, which screen value is on record?
Its screen value is 0.000354 average fractional NGS count over selection days 2 and 3 (reads of this peptide / all reads for the bait, averaged over ….

With chain 1 L11V as the variant, how does the screen value read?
The screen value was 0.00105 average fractional NGS count over selection days 2 and 3 (reads of this peptide / all reads for the bait, averaged over ….

chain 1 S9P was tested. Which screen value did it give?
Its screen value is 0.000206 average fractional NGS count over selection days 2 and 3 (reads of this peptide / all reads for the bait, averaged over ….

With chain 1 S9A as the variant, how does the screen value read?
The screen value was 0.000707 average fractional NGS count over selection days 2 and 3 (reads of this peptide / all reads for the bait, averaged over ….

Which screen value does the source give for chain 1 V7L here?
The screen value was 0.0042 average fractional NGS count over selection days 2 and 3 (reads of this peptide / all reads for the bait, averaged over ….

How did the screen value turn out when chain 1 V7E was run?
The screen value was 0.00195 average fractional NGS count over selection days 2 and 3 (reads of this peptide / all reads for the bait, averaged over ….

chain 1 V7I was tested. Which screen value did it give?
The screen value was 0.000515 average fractional NGS count over selection days 2 and 3 (reads of this peptide / all reads for the bait, averaged over ….

Which screen value does the source give for chain 1 V7D here?
The screen value was 0.000439 average fractional NGS count over selection days 2 and 3 (reads of this peptide / all reads for the bait, averaged over ….

For chain 1 V7A, which screen value is on record?
Its screen value is 0.0345 average fractional NGS count over selection days 2 and 3 (reads of this peptide / all reads for the bait, averaged over ….

Which screen value does the source give for chain 1 V7Y here?
The screen value was 0.00645 average fractional NGS count over selection days 2 and 3 (reads of this peptide / all reads for the bait, averaged over ….

For chain 1 V7H, which screen value is on record?
The screen value was 0.000523 average fractional NGS count over selection days 2 and 3 (reads of this peptide / all reads for the bait, averaged over ….

Which screen value does the source give for chain 1 V7F here?
The screen value was 0.00058 average fractional NGS count over selection days 2 and 3 (reads of this peptide / all reads for the bait, averaged over ….

Which screen value does the source give for chain 1 V7W here?
The screen value was 0.00263 average fractional NGS count over selection days 2 and 3 (reads of this peptide / all reads for the bait, averaged over ….

For chain 1 V7T, which screen value is on record?
The screen value was 0.0104 average fractional NGS count over selection days 2 and 3 (reads of this peptide / all reads for the bait, averaged over ….

How did the screen value turn out when chain 1 V7G was run?
The screen value was 0.000623 average fractional NGS count over selection days 2 and 3 (reads of this peptide / all reads for the bait, averaged over ….

chain 1 P10T was tested. Which screen value did it give?
The screen value was 0.00133 average fractional NGS count over selection days 2 and 3 (reads of this peptide / all reads for the bait, averaged over ….

chain 1 P10K was tested. Which screen value did it give?
The screen value was 0.00642 average fractional NGS count over selection days 2 and 3 (reads of this peptide / all reads for the bait, averaged over ….

Which screen value does the source give for chain 1 P10E here?
The screen value was 0.000515 average fractional NGS count over selection days 2 and 3 (reads of this peptide / all reads for the bait, averaged over ….

With chain 1 P10A as the variant, how does the screen value read?
The screen value was 0.00236 average fractional NGS count over selection days 2 and 3 (reads of this peptide / all reads for the bait, averaged over ….

Which screen value does the source give for chain 1 P10M here?
The screen value was 0.00123 average fractional NGS count over selection days 2 and 3 (reads of this peptide / all reads for the bait, averaged over ….

chain 1 P10H was tested. Which screen value did it give?
The screen value was 0.00282 average fractional NGS count over selection days 2 and 3 (reads of this peptide / all reads for the bait, averaged over ….

With chain 1 P10Y as the variant, how does the screen value read?
The screen value was 0.000349 average fractional NGS count over selection days 2 and 3 (reads of this peptide / all reads for the bait, averaged over ….

Which screen value does the source give for chain 1 P10D here?
The screen value was 0.00117 average fractional NGS count over selection days 2 and 3 (reads of this peptide / all reads for the bait, averaged over ….

With chain 1 E3G as the variant, how does the screen value read?
The screen value was 0.00191 average fractional NGS count over selection days 2 and 3 (reads of this peptide / all reads for the bait, averaged over ….

For chain 1 E3W, which screen value is on record?
Its screen value is 0.0075 average fractional NGS count over selection days 2 and 3 (reads of this peptide / all reads for the bait, averaged over ….

For chain 1 E3M, which screen value is on record?
Its screen value is 0.0019 average fractional NGS count over selection days 2 and 3 (reads of this peptide / all reads for the bait, averaged over ….

How did the screen value turn out when chain 1 E3H was run?
Its screen value is 0.00041 average fractional NGS count over selection days 2 and 3 (reads of this peptide / all reads for the bait, averaged over ….

How did the screen value turn out when chain 1 E3V was run?
Its screen value is 0.000642 average fractional NGS count over selection days 2 and 3 (reads of this peptide / all reads for the bait, averaged over ….

chain 1 E3Y was tested. Which screen value did it give?
The screen value was 0.00103 average fractional NGS count over selection days 2 and 3 (reads of this peptide / all reads for the bait, averaged over ….

With chain 1 E3I as the variant, how does the screen value read?
Its screen value is 0.00159 average fractional NGS count over selection days 2 and 3 (reads of this peptide / all reads for the bait, averaged over ….

chain 1 E3F was tested. Which screen value did it give?
Its screen value is 0.00327 average fractional NGS count over selection days 2 and 3 (reads of this peptide / all reads for the bait, averaged over ….

Which screen value does the source give for chain 1 E3D here?
The screen value was 0.000475 average fractional NGS count over selection days 2 and 3 (reads of this peptide / all reads for the bait, averaged over ….

chain 1 E3T was tested. Which screen value did it give?
The screen value was 0.00106 average fractional NGS count over selection days 2 and 3 (reads of this peptide / all reads for the bait, averaged over ….

For chain 1 E3A, which screen value is on record?
The screen value was 0.000271 average fractional NGS count over selection days 2 and 3 (reads of this peptide / all reads for the bait, averaged over ….

With chain 1 E3S as the variant, how does the screen value read?
The screen value was 0.00226 average fractional NGS count over selection days 2 and 3 (reads of this peptide / all reads for the bait, averaged over ….

chain 1 H12N was tested. Which screen value did it give?
The screen value was 0.00503 average fractional NGS count over selection days 2 and 3 (reads of this peptide / all reads for the bait, averaged over ….

Which screen value does the source give for chain 1 H12T here?
Its screen value is 0.00303 average fractional NGS count over selection days 2 and 3 (reads of this peptide / all reads for the bait, averaged over ….

chain 1 H12G was tested. Which screen value did it give?
Its screen value is 0.00249 average fractional NGS count over selection days 2 and 3 (reads of this peptide / all reads for the bait, averaged over ….

For chain 1 H12K, which screen value is on record?
The screen value was 0.000275 average fractional NGS count over selection days 2 and 3 (reads of this peptide / all reads for the bait, averaged over ….

With chain 1 H12A as the variant, how does the screen value read?
The screen value was 0.00137 average fractional NGS count over selection days 2 and 3 (reads of this peptide / all reads for the bait, averaged over ….

How did the screen value turn out when chain 1 H12V was run?
Its screen value is 0.00311 average fractional NGS count over selection days 2 and 3 (reads of this peptide / all reads for the bait, averaged over ….

How did the screen value turn out when chain 1 H12P was run?
Its screen value is 0.00102 average fractional NGS count over selection days 2 and 3 (reads of this peptide / all reads for the bait, averaged over ….

How did the screen value turn out when chain 1 H12W was run?
Its screen value is 0.000302 average fractional NGS count over selection days 2 and 3 (reads of this peptide / all reads for the bait, averaged over ….

For chain 1 H12D, which screen value is on record?
The screen value was 0.00129 average fractional NGS count over selection days 2 and 3 (reads of this peptide / all reads for the bait, averaged over ….

With chain 1 H12Q as the variant, how does the screen value read?
The screen value was 0.0044 average fractional NGS count over selection days 2 and 3 (reads of this peptide / all reads for the bait, averaged over ….

chain 1 S14F was tested. Which screen value did it give?
The screen value was 0.00254 average fractional NGS count over selection days 2 and 3 (reads of this peptide / all reads for the bait, averaged over ….

Which screen value does the source give for chain 1 S14H here?
Its screen value is 0.00391 average fractional NGS count over selection days 2 and 3 (reads of this peptide / all reads for the bait, averaged over ….

With chain 1 S14M as the variant, how does the screen value read?
The screen value was 0.00342 average fractional NGS count over selection days 2 and 3 (reads of this peptide / all reads for the bait, averaged over ….

For chain 1 S14Q, which screen value is on record?
The screen value was 0.00119 average fractional NGS count over selection days 2 and 3 (reads of this peptide / all reads for the bait, averaged over ….

How did the screen value turn out when chain 1 S14T was run?
Its screen value is 0.012 average fractional NGS count over selection days 2 and 3 (reads of this peptide / all reads for the bait, averaged over ….

With chain 1 S14W as the variant, how does the screen value read?
Its screen value is 0.00882 average fractional NGS count over selection days 2 and 3 (reads of this peptide / all reads for the bait, averaged over ….

With chain 1 S14G as the variant, how does the screen value read?
Its screen value is 0.000766 average fractional NGS count over selection days 2 and 3 (reads of this peptide / all reads for the bait, averaged over ….

Which screen value does the source give for chain 1 S14V here?
Its screen value is 0.0171 average fractional NGS count over selection days 2 and 3 (reads of this peptide / all reads for the bait, averaged over ….

chain 1 S14R was tested. Which screen value did it give?
Its screen value is 0.000219 average fractional NGS count over selection days 2 and 3 (reads of this peptide / all reads for the bait, averaged over ….
